Assay results reported in patent US20090291081A1 (AbbVie / Abbott, published 2009).
Positions count from the first letter of the chain named. Values joined by “and” are separate entries in the source; they are usually repeats but may differ in a detail not shown here. Identical values can stand only once. Blank lines part the entries; values can stand above or below the binder they belong to.

Experiments:
[1] = target: human IL-1β (human, UniProt P01584 117-269); experiment: cell-based or functional assay
[2] = target: T1, human IL-1α (human, UniProt P01583 113-271); experiment: cell-based or functional assay
T1 sequence (looked up): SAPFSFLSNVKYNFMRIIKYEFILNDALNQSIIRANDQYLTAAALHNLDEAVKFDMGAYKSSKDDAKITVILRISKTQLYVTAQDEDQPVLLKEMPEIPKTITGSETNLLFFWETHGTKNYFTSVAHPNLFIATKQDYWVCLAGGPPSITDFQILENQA

[3] = target: T2, human IL-1β (human, UniProt P01584 117-269); experiment: Table 60 heading; dAbs from selection on antigen
T2 construct: also called IL-1beta; hIL-1β

binding result [3]: binds
B10: ABT2-65-166S (other)
VH: EVQLLESGGGLVQPGGSLRLSCAASGFTFSDYQMGWVRQAPGKGLEWVSSISAMGGRTYYADSVKGRFTISRDNSKNTLYLQMNSLRAEDTAVYYCAQNLVRLGRSRWMFDYWGQGTLVTVSS
notes: VH dAb

binding result [3]: binds
B11: ABT2-65-B3 (other)
VH: B10 VH with A23V, S30E, G56N, T58A, N74D
notes: VH dAb

binding result [3]: binds
B12: ABT2-65-B2 (other)
VH: B10 VH with A23V, S30E, G56R, N74D
notes: VH dAb

binding result [3]: binds
B13: ABT2-65-166SK (other)
VH: B10 VH with Q98K
notes: VH dAb

binding result [3]: binds
B14: ABT2-65-201 (other)
VH: B10 VH with A23V, S30E, G56R
notes: VH dAb

binding result [3]: binds
B15: ABT2-65-203 (other)
VH: B10 VH with A23V, S30E, G56F
notes: VH dAb

IL-1β IC50 [1]: 0.00482 nM
IL-1α IC50 [2]: 10.1 nM
B25: ABT2-108-620x/ABT1-122-750MT hu IgG1 wt (bispecific antibody, V domains shown)
VH: EVQLLESGGGLVQPGGSLRLSCAASGFTFAEESWMWVRQAPGKGLEWVSRIGQDGKNTYYREDVKGRFTISRDNSKNTLYLQMNSLRAEDTAVYYCAKYTGRIMGHHLFDYWGQGTLVTVSS
VL: DIQMTQSPSSLSASVGDRVTITCSASQHIWTEMSWYQQKPGKTPKLLIYGSASRQKGVPSRFSGSGSGTDFTLTISSLQPEDFATYYCKQFAYFPNTFGQGTKVEIKR

IL-1β IC50 [1]: 0.005 nM
IL-1α IC50 [2]: 17.5 nM
B27: ABT2-108-620x/ABT1-122-750x huIgG1/K wt (bispecific antibody, V domains shown)
VH: B25 VH
VL: B25 VL with T20A, M33I, T43A

binding result [3]: binds
B29: ABT2-108-527 (other)
VH: B25 VH with E32Y, S33T, W34M, R61A, E62D, D63S, I103V, M104F, G105K
notes: VH dAb

binding result [3]: binds
B30: ABT2-108-518 (other)
VH: B25 VH with E32Y, S33T, W34M, E62M, I103V, M104G, G105V
notes: VH dAb

binding result [3]: binds
B31: ABT2-108-504 (other)
VH: B25 VH with E31D, S33G, W34M, R61A, E62D, D63S, I103V, M104G, G105V
notes: VH dAb

binding result [3]: binds
B32: ABT2-108-524 (other)
VH: B25 VH with E32Y, S33T, W34M, R61A, E62D, D63S, I103V, M104F, G105N
notes: VH dAb

binding result [3]: binds
B33: ABT2-108-511 (other)
VH: B25 VH with E32Y, S33T, W34M, Y59V, Y60I, E62D, D63S, I103V, M104G, G105V
notes: VH dAb

binding result [3]: binds
B34: ABT2-108-509 (other)
VH: EVQLLESGGGLVQPGGSLRLSCAASGFTFAEYTMMWVRQAPGKGLEWVSRITYSGKNTYYADSVKGRFTISRDNSKNTLYLQMNSLRAEDTAVYYCAKYTGRVGVHHLFDYWGQGTLVTVSS
notes: VH dAb

The remaining lines, values behind:

B1: ABT2-65/ABT1-141 hu IgG1/K wt (bispecific antibody, V domains shown)
VH: B10 VH with S30E, G56N, N74D, Q98K, L103T, G104Q, R105S, S106K, R107M
VL: DIQMTQSPSSLSASVGDRVTITCRASQWIQKQLAWYQQKPGKAPKLLIYSSSYLQSGVPRFSGSGSGTDFTLTISSLQPEDFATYYCQQHLRVPFTFGQGTKVEIKR
IL-1β IC50 [1]: 100 nM
IL-1α IC50 [2]: 7000 nM

B2: ABT2-65-166/ABT1-95-184 hu IgG1mut 234, 235/K (bispecific antibody, V domains shown)
VH: B10 VH with S30E
VL: DIQMTQSPSSLSASVGDRVTITCRASRTPVRNLRWYQQKPGKAPKLLIYSRSYLEPGVPSRFSGSGSGTDFTLTISSLQPEDFATYHCLQGYRWPPTFGQGTKVEIKR
IL-1β IC50 [1]: 0.15 nM
IL-1α IC50 [2]: 0.068 nM

B3: ABT2-65/ABT1-122 hu IgG1/K wt (bispecific antibody, V domains shown)
VH: B10 VH with S30E, G56N, N74D, Q98K, L103T, G104Q, R105S, S106K, R107M
VL: DIQMTQSPSSLSASVGDRVTITCRASQPIWTELNWYQQKPGKAPKLLIYGSSSLQSGVPRFSGSGSGTDFTLTISSLQPEDFATYYCQQFAYFPATFGQGTKVEIKR
IL-1β IC50 [1]: 2000 nM
IL-1α IC50 [2]: 2000 nM

B4: ABT2-65-166/ABT1-95-15 hu IgG1/K wt (bispecific antibody, V domains shown)
VH: B10 VH with S30E
VL: B2 VL with R27Q, T28P, P29I, R51S, L89Q, P96V
IL-1β IC50 [1]: 0.13 nM
IL-1α IC50 [2]: 1.89 nM

B5: ABT2-65-17/ABT1-141 hu IgG1/K wt (bispecific antibody, V domains shown)
VH: B10 VH with A23V, S30E, G56N, N74D
VL: B1 VL
IL-1β IC50 [1]: 0.4 nM
IL-1α IC50 [2]: 70 nM

B6: ABT2-65-8/ABT1-122 hu IgG1/K wt (bispecific antibody, V domains shown)
VH: B10 VH with S30E, G56N, N74D, L103M, G104D, R105S, S106R
VL: B3 VL
IL-1β IC50 [1]: 2.7 nM
IL-1α IC50 [2]: 1000 nM

B7: ABT2-65-201/ABT1-95-15 hu IgG1/K mut (234; 235) (bispecific antibody, V domains shown)
VH: B10 VH with A23V, S30E, G56R
VL: B2 VL with R27Q, T28P, P29I, R51S, L89Q, P96V
IL-1β IC50 [1]: 0.03 nM
IL-1α IC50 [2]: 0.652 nM

B8: ABT2-65-8/ABT1-212 hu IgG1/K wt (bispecific antibody, V domains shown)
VH: B10 VH with S30E, G56N, N74D, L103M, G104D, R105S, S106R
VL: DIQMTQSPSSLSASVGDRVTITCRASQRINGNLRWYQQKPGKAPKLLIYSVSQLQSGVPSRFSGSGSGTDFTLTISSLQPEDFATYYCQQGYDWPPTFGQGTKVETKR
IL-1β IC50 [1]: 3.5 nM
IL-1α IC50 [2]: 5000 nM

B9: ABT2-65-8/ABT1-141 hu IgG1/K wt (bispecific antibody, V domains shown)
VH: B10 VH with S30E, G56N, N74D, L103M, G104D, R105S, S106R
VL: B1 VL
IL-1β IC50 [1]: 0.09 nM
IL-1α IC50 [2]: 450 nM

B16: ABT2-108-620x/ABT1-122-750M hu IgG1 wt (bispecific antibody, V domains shown)
VH: B25 VH
VL: B25 VL with T43A
IL-1β IC50 [1]: 0.00555 nM
IL-1α IC50 [2]: 18.5 nM

B17: ABT2-108-538x/ABT1-221 huIgG1/K wt (bispecific antibody, V domains shown)
VH: B34 VH with E31D, Y32E, T33G, V103I, G104L, V105G
VL: DIQMTQSPSSLSASVGDRVTITCRASQDIWPYLMWYQQKPGKAPKLLIYYSSMLQSGVPSRFSGSGSGTDFTLTISSLQPEDFATYYCQQFRRWPYTFGQGTKVEIKR
IL-1β IC50 [1]: 0.01 nM
IL-1α IC50 [2]: 200 nM

B18: ABT2-108-521 (other)
VH: B34 VH with T52G, Y53Q, S54D, V103I, G104L, V105G
notes: VH dAb
binding result [3]: binds

B19: ABT2-108-521/ABT1-141-25 hu IgG1/K wt (bispecific antibody, V domains shown)
VH: B34 VH with T52G, Y53Q, S54D, V103I, G104L, V105G
VL: DIQMTQSPSSLSASVGDRVTITCRASQWIQKQLAWYQQKPGKAPKLLIYSSSYLQSGVPSRFSGSGSGTDFTLTISSLQPEDFATYYCQQHLRVPMTFGQGTKVEIKR
IL-1β IC50 [1]: 0.1 nM
IL-1α IC50 [2]: 20 nM

B20: ABT2-108-504/ABT1-122 hu IgG1/K wt (bispecific antibody, V domains shown)
VH: B34 VH with E31D, Y32E, T33G, T52G, Y53Q, S54D
VL: B3 VL
IL-1β IC50 [1]: 15 nM
IL-1α IC50 [2]: 1500 nM

B21: ABT2-108-521/ABT1-95-A3 hu IgG1 wt (bispecific antibody, V domains shown)
VH: B34 VH with T52G, Y53Q, S54D, V103I, G104L, V105G
VL: B2 VL with R27K, T28P, P29G, L33M, R51V
IL-1β IC50 [1]: 0.098 nM
IL-1α IC50 [2]: 0.027 nM

B22: ABT2-108-538x/ABT1-221 huIgG1/K wt (second row of that name; light chain column ABT1-222) (bispecific antibody, V domains shown)
VH: B34 VH with E31D, Y32E, T33G, V103I, G104L, V105G
VL: B8 VL with R28P, N30T, G31R, S50H, V51S, Q53V, D93R, P96V, T106I
IL-1β IC50 [1]: 0.01 nM
IL-1α IC50 [2]: 200 nM

B23: ABT2-108-537x/ABT1-122 hu IgG1/K wt (bispecific antibody, V domains shown)
VH: B25 VH with E31D, S33G, W34M, E62M, M104L
VL: B3 VL
IL-1β IC50 [1]: 0.007 nM and 0.02 nM
IL-1α IC50 [2]: 1000 nM

B24: ABT2-108-612/ABT1-122 hu IgG1/K wt (bispecific antibody, V domains shown)
VH: B25 VH with E32Y, S33T, W34M, R61A, E62D, D63S
VL: B3 VL
IL-1β IC50 [1]: 1 nM and 0.45 nM
IL-1α IC50 [2]: 100 nM

B26: ABT2-108-518/ABT1-122 hu IgG1/K wt (bispecific antibody, V domains shown)
VH: B34 VH with T52G, Y53Q, S54D, A61R, D62M, S63D
VL: B3 VL
IL-1β IC50 [1]: 0.5 nM
IL-1α IC50 [2]: 400 nM

B28: ABT2-108-617/ABT1-122 hu IgG1/K wt (bispecific antibody, V domains shown)
VH: B34 VH with T52G, Y53Q, S54D, V103I, G104F, V105T
VL: B3 VL
IL-1β IC50 [1]: 0.05 nM
IL-1α IC50 [2]: 150 nM

B35: ABT2-108-534x/ABT1-122 hu IgG1/K wt (bispecific antibody, V domains shown)
VH: B34 VH with E31D, Y32E, T33G, V103I, G104F, V105S
VL: B3 VL
IL-1β IC50 [1]: 0.025 nM and 0.035 nM
IL-1α IC50 [2]: 1000 nM

B36: ABT2-108-603/ABT1-122 hu IgG1/K wt (bispecific antibody, V domains shown)
VH: B34 VH with Y53D, S54A
VL: B3 VL
IL-1β IC50 [1]: 10 nM
IL-1α IC50 [2]: 1500 nM
